Like-named read-outs stand apart in the source and are kept apart here.
What was measured:
native gel or EMSA = target: the molecule itself; assay: native gel or EMSA
SpPot1 [1] = target: T1, SpPot1 (Schizosaccharomyces pombe, UniProt O13988 1-555); assay: filter binding
T1 sequence: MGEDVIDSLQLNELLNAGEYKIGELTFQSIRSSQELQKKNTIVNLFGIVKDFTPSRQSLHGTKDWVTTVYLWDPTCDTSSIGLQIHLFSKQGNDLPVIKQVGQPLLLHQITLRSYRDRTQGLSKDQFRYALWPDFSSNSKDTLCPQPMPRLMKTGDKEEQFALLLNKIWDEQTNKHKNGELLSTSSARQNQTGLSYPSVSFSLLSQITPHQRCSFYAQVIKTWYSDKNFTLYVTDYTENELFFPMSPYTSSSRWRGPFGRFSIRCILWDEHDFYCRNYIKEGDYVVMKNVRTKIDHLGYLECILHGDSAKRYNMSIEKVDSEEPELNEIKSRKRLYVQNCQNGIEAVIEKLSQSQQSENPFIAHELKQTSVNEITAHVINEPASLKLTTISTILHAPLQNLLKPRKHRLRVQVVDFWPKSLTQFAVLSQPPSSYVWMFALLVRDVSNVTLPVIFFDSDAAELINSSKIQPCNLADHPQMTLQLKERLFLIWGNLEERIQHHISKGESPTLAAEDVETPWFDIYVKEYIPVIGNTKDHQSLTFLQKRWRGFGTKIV

SpPot1 [2] = target: T1, SpPot1; assay: filter binding; remark: listed apart in the source
SpPot1 [3] = target: T1, SpPot1
SpPot1 [4] = target: T1, SpPot1; assay: filter binding; remark: listed apart in the source
SpPot1 [5] = target: T1, SpPot1; assay: filter binding; remark: listed apart in the source
SpPot1-DBD [6] = target: T2, SpPot1-DBD (Schizosaccharomyces pombe, UniProt O13988 1-389); assay: EMSA
T2 sequence: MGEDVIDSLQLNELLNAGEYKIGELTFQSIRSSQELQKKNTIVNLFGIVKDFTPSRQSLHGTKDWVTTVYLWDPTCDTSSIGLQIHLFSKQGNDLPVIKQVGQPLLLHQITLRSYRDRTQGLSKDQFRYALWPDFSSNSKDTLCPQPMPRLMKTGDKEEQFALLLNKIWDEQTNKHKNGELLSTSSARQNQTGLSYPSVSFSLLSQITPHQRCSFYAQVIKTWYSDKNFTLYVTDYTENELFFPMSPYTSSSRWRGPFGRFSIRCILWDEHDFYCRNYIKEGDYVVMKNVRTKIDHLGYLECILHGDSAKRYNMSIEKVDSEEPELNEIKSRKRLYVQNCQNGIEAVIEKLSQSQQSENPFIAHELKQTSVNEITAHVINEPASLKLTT

SpPot1-DBD [7] = target: T2, SpPot1-DBD; assay: EMSA; remark: listed apart in the source
SpPot1-DBD [8] = target: T2, SpPot1-DBD; assay: EMSA; remark: listed apart in the source
SpPot1-DBD [9] = target: T2, SpPot1-DBD; assay: EMSA; remark: listed apart in the source
SpPot1-DBD [10] = target: T2, SpPot1-DBD; assay: EMSA; remark: listed apart in the source
SpPot1-DBD [11] = target: T2, SpPot1-DBD; assay: EMSA; remark: listed apart in the source
SpPot1-DBD [12] = target: T2, SpPot1-DBD; assay: EMSA; remark: listed apart in the source
Cdc13 = target: T3, Cdc13 (Saccharomyces cerevisiae, UniProt P32797 1-924); assay: EMSA
T3 sequence: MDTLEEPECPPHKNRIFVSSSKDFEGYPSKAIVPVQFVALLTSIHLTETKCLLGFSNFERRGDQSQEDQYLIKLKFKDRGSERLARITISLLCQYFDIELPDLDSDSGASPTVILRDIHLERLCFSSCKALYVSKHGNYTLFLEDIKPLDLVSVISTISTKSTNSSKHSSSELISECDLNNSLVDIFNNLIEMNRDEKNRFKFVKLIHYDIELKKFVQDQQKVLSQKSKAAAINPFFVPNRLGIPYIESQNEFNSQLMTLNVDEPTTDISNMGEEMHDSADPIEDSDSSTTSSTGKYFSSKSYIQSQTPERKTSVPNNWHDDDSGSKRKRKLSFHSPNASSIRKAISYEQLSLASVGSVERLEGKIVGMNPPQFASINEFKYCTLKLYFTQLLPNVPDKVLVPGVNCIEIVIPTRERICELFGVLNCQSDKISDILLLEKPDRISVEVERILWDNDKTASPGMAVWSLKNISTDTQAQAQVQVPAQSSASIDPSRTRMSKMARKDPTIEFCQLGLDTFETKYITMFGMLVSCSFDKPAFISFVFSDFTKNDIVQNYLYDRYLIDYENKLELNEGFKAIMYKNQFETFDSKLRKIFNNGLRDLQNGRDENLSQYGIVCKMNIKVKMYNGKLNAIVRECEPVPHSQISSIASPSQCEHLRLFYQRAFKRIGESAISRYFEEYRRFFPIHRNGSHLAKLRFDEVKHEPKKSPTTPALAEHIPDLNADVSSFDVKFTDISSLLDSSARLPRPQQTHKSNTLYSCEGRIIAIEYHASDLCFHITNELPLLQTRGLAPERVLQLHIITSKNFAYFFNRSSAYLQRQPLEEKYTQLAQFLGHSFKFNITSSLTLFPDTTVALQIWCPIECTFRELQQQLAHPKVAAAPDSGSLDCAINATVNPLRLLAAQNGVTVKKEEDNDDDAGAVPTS

B1: Saccharomyces cerevisiae Cdc13 (1–924), full-length protein (natural protein, UniProt P32797 1-924, looked up)
chain: T3 sequence
stoichiometry N (native gel or EMSA): 2

B2: 12mer (ssDNA)
DNA: GGTTACGGTTAC
Kd (SpPot1 [1]): 100 pM
Kd (SpPot1 [2]): 14 pM
Kd (SpPot1 [3]): 6.7 ± 0.9 pM
Kd (SpPot1 [4]): 700 pM
Kd (SpPot1 [5]): 130 pM

B3: 15mer (ssDNA)
DNA: GGTTACGGTTACGGT
Kd (SpPot1-DBD [6]): 5 pM
Kd (SpPot1-DBD [7]): 4.9 ± 0.8 pM
Kd (SpPot1-DBD [8]): 1.6 pM
Kd (SpPot1-DBD [9]): 1.5 pM
Kd (SpPot1 [3]): 5.2 ± 0.5 pM
Kd (SpPot1-DBD [10]): 4.2 pM
Kd (SpPot1-DBD [11]): 10.3 pM

B4: d(GGTTA) 5mer (ssDNA)
DNA: GGTTA
Kd (SpPot1-DBD [12]): ~10000 pM

B5: Tel11 (ssDNA)
DNA: GTGTGGGTGTG
Kd (Cdc13): 13.4 ± 0.8 pM

— article PMC4155600 (Journal of nucleic acids investigation, 2013)
